In the DeepSol protein solubility set:

Test: soluble on expression in E. coli; label from the status in PepcDB or PDB records
For “MGSDKIHHHHHHVETSASVMEPFLQLLRGNNLRWRSFGLTRQDGNVSETEAIPNPQDTVDTHPWGRYVAMGDSFTEGIGDPEPGSPGGHRGWADRVAEELSRGHSDFAYANLAVRGRLLEQIVDQQLAPCLALKPDLVTLSAGGNDLIRPGGDPDALAEKLDSVVHILSLGGATVVLFNGPDTGSSVLGRVRSKIAIYNENLRTVAARHDAVIADMWSLRQLSDPQMWDQDRLHFSPLGHHTIAAMVLDSLNIRHTLEPLSPKPLPQRSWREARSGDLVWAREYFVPWVVRRLRHQSSGDGVTAKRPTPGPVFGPGMPLGSGEAPGIEAEQR”, the “soluble on expression in E. coli” value was “not soluble”. For “MGSSHHHHHHSQDPPAVHKLTKRIPLRRQVTVSAESSSSMNSNTPLVRITTRLSSTADTPMLAGVSEYELPEDPKWEFPRDKLTLGKPLGEGCFGQVVMAEAVGIDKDKPKEAVTVAVKMLKDDATEKDLSDLVSEMEMMKMIGKHKNIINLLGACTQDGPLYVIVEYASKGNLREYLRARRPPGMEYSYDINRVPEEQMTFKDLVSCTYQLARGMEYLASQKCIHRDLAARNVLVTENNVMKIADFGLARDINNIDYYKKTTNGRLPVKWMAPEALFDRVYTHQSDVWSFGVLMWEIFTLGGSPYPGIPVEELFKLLKEGHRMDKPANCTNELYMMMRDCWHAVPSQRPTFKQLVEDLDRILTLTTNEE”, the “soluble on expression in E. coli” value was “soluble”. With “MGSDKIHHHHHHAPTSIPDSALRTAAQLREQALADSTGFAVVESLTTEVGPRIAGGEADPRAVAWAKAKFKSLGFDKVWTEPVTFPKWERRSEQAAVIGAHAQPLHITALGGSPGGTVEGEIVRFENLAALQAAPAGSLAGKIAFVDYQMVKARDGKDYGNGGAVRSKGPSEAIRKGAIGFVMRSAGTDSHRVPHTGITRFDEGLTPVPAAALSVPDANQLARLAALGSTRVRLALDCGWDGTATSYNVIGEITGRSKPKEVVVIGGHLDSWDLGTGAIDDGAGVAITMAAGHLIGQLKQAPKRTIRVVAFANEEQGLYGGKAYAAAHGKDAKDMALHQIGAESDFGAGRIYAFNTGSAAPEQSRAAT” the “soluble on expression in E. coli” value was “not soluble”. With “MSLKKTEKAYEVKRAFNNNIVLVDDDEKEIILFAKGIGFNCKKGSIIPENTNIEKIFTIQDENNIANFRRVVGSNDEKFIAFCEELILEISRDFSEELNEIIHIGLIDHISFAIERMKKGEILRNPFLVEIETLYPKEFEAATKMVKKLEDFTGVSIVDDEIGFIAMHIHSARTTGKISHTIKFTYIANTAVEYIEDAFNIEVDRTSLSYARFISHLRFAIERLINNTPVKNELLSIIKLKYPESFKVAEEIGKAINEDFSLEVAEDEIGYLALHVERIRKNEGHHHHHH” the “soluble on expression in E. coli” value was “soluble”. In the case of “MRELVVIFGLSGSGKSFLASILHEKCGYEWLRSDVIRKQLAGLKPEESAKADYGKGIYTKEITKKVYEEMVKRAKELIDRGKKVVLDATFIKRWQRELVLKNFKDPFFILAFAPEEVIKERLKSRKDVSDADWNIYLKQKEEFEAPEEIDYCVINTNKSKEELESRLKKLLGCQLK”, the “soluble on expression in E. coli” value is reported as “not soluble”. For “NMDVDIMSNQDEWRLYRYFIGRSKQTYARPSGSGTSTNEILQEGYYKVPIFARSRYWFNGEYWPALFEQAYANWKFPNDSKYNAILQIGGGWPEEALCELSGDSWFTSSGKLMLSSFTDLSLLNFMKSMCYSWKTIKPMVIVTPCWEPLPPMMPGIAAYH”, the “soluble on expression in E. coli” value was “not soluble”. For “MSEVIQDRRSAVDTARAGHMLERARWAAAAYGEYDAATVEGIVAAVAEAAHAHAERFAADAVAETGMGVVADKVRKNRACSRGIVEYYRGHDYISPRVDPDRKIVELPRPAGVVLALTPTTNPVATVYFKTILALMTRNAVVVAPHPRAARCSAEAARVLAEAAVAAGAPDGVVQVIDEPSIPLVQALMADERTDVIVATGGTAVVRAAYSSGNPALGVGPGNVPVLVDASADVAAAAQRIVDSKAFDNSVLCTNESVLIAEDAVADKLRAALTRAGAHILDEDGARRLRAYMFADGHLNTDVVGRDAAWIAGQAGLRVTPKTRVLIAPFDHVIAEEMLAHEKLSPVLGMTTVADAARGIRAARAVVRIGGAGHSAAIHSENPAVITDFAAQVPVLRVSVNVGNSTGSAGLDTNLAPSMTIGTGFVGRSSIGENLQPHNLVNWTRIAYNSDPGVVMGNFTGIDPWRAPAGPVPAYPRASNDRDGAVIQAAPQRSYQSPSRTTDVNLDALRAELRALVVEELAQLIKR”, the “soluble on expression in E. coli” value was “not soluble”. With “MGVFRTRFTETFGVEHPIMQGGMQWVGRAEMAAAVANAGGLATLSALTQPSPEALAAEIARCRELTDRPFGVNLTLLPTQKPVPYAEYRAAIIEAGIRVVETAGNDPGEHIAEFRRHGVKVIHKCTAVRHALKAERLGVDAVSIDGFECAGHPGEDDIPGLVLLPAAANRLRVPIIASGGFADGRGLVAALALGADAINMGTRFLATRECPIHPAVKAAIRAADERSTDLIMRSLRNTARVARNAISQEVLAIEARGGAGYADIAALVSGQRGRQVYQQGDTDLGIWSAGMVQGLIDDEPACAELLRDIVEQARQLVRQRLEGMLAGV” the “soluble on expression in E. coli” value was “soluble”. With “TGLRPSGTVSCPICMDGYSEIVQNGRLIVSTECGHVFCSQCLRDSLKNANTCPTCRKKINHK” the “soluble on expression in E. coli” value was “soluble”. For “GMSKPAITLWSDAHFFSPYVLSAWVALQEKGLSFHIKTIDLDSGEHLQPTWQGYGQTRRVPLLQIDDFELSESSAIAEYLEDRFAPPTWERIYPLDLENRARARQIQAWLRSDLMPIREERPTDVVFAGAKKAPLTAEGKASAEKLFAMAEHLLVLGQPNLFGEWCIADTDLALMINRLVLHGDEVPERLVDYATFQWQRASVQRFIALSAKQSG”, the “soluble on expression in E. coli” value was “soluble”. For “MTVTDRIFQNVAELSVPNFFITVEFSVMGNEMPEHIESFVLEKYQAILHGANGRKFVYTEGGWRLFFTFFPTDKVVDERYALKNKVQMKFHK”, the “soluble on expression in E. coli” value was “not soluble”. With “MNIPKVQFNPKVHKNIGIEIIELSDIYKRSDDDLENFIAKPHRIKFHNILYITQGRGTHFIDFNTYTTQAGSVVFINKNQVHAFDLINQPQGKLIIFTDEYLDTILTTIKTPLSAHNYLLTSYSPTFSLSKKIRNTCDVLLTEIEKEYQVKDPNLNFLNLIFSAVLTKLSSERTRSFEQYLSESRTEKFMTFIELLEVNYTNTRDAKIYADMLHMTYKSLNQICKLATKQTTKQLIDAYIILEAKRKLSIENIRVQQLADELGFDEVTNFVKYFKKNTLLTPSQFKKLNQG” the “soluble on expression in E. coli” value was “not soluble”. In the case of “MGSDKIHHHHHHMNILAPVSSVKEAEQLIAHGADELYCGIGLGALKNRPGNTDREIWINRRESGNANIPDLESLSLLVDHAHAQGKKVYLTLNQPGYAQDLYGEILAFVREVKKSCQVDAFIVADPGLIRMLIGKEPDMVIHVSSLAGVLNSSAVLFFKKLGVKRIVFPRYLEAETLKKIMDRAGEDLEYEVFILNDGCMFEESHCHVSHQFGGAFCHNPAWRYKLIPPEEGGILETWKLRNLKIAGETFEGNVEEWKRWQWLGIKNGGGYIGAKYPLGMCGLCTLPEYRDMGITSLKIVGREAPLSKKIKSVQLLKKVLDYQREEHLPDEVRDYARRTKGARLLCGSGYMCYER”, the “soluble on expression in E. coli” value is reported as “not soluble”. With “MRILGLDLGTKTLGVALSDEMGWTAQGIETIKINEAEGDYGLSRLSELIKDYTIDKIVLGFPKNMNGTVGPRGEASQTFAKVLETTYNVPVVLWDERLTTMAAEKMLIAADVSRQKRKKVIDKMAAVMILQGYLDSLNLEHHHHHH” the “soluble on expression in E. coli” value was “not soluble”. In the case of “GPGSMMELPMEMNVDGVPMVLSKVSYSPMLDFGGTFSYRRYCFVGELQPEGYVNWFFAPLEGYKDKRLRVHESAVKEGALNHLVFMRLGELSFRQYKLKHIPSPTEQPHSPVTPQGDSTKQLMGHAHPHFNYIFEAMRQDQASSPSPRSSSIGSDCTYHSSKESCESLQMSSSLVDLPGKRLSNASLRSGVRPPLEARRGAVCDDEGFLPPVRSLKKSSERSQEL”, the “soluble on expression in E. coli” value is reported as “not soluble”. In the case of “MPPDEIEIEPVRQSSDKMLYCEAESPPTVEKVKPARENSETDLEIEDDEKFFTTGQKELYLEACKLMGVVPVSYFIRNMEESYVNLNHHGLGPRGTKAIAIALVSNMAVTKLELEDNCIMEEGVLSLVEMLQENYYLQEMNISNNHLGLEGARIISDFFERNSSSIWSLELSGNDFKEDSAALLCQALSTNYQIKKLDLSHNQFSDVGGEHLGQMLAINVGLTSLDLSWNNFHTRGAVALCNGLRGNVTLTKLDLSMNGFGNEVALALGEVLRLNRCLVYLDIGGNDIGNEGASKISKGLESNESLRVLKLFLNPINMDGAILLILAIKRNPKSRMEELDISNVLVSEQFMKTLDGVYAVHPQLDVVFKAVQGLSPKKTIFLLTNPMKLIQSYADQHKITIVDFFKSLNPTGTMKMSVDEFQKVMIEQNKVPLNQYQVREVIKKLDEKTGMVNFSFLNTMKP”, the “soluble on expression in E. coli” value is reported as “soluble”. In the case of “MIRITQIKISIDEPVSKVKSLVLKKLRLQESDLLDYRIYKESIDARHRGEIDFIYTVDIKLKDEARILSKKIKNVSLAPELDYVNPVIGSKKMLHRPVVIGFGPAGMFAALLLAQNGYRPIVLERGQAVDERVKSIDKFWLEGKLNPKSNVQFGEGGAGTFSDGKLTSRVRDLRGRKVLEEFVQAGAPEDILYKAHPHVGTDLLRDIVKNIRKQIIELGGEVHFDAQVEEFLIEDEELQAVKLADGNIIKTNQAILAIGHSARDTFSELYDKGVTITAKPFAVGVRIEHPQSLINKAQYKEFADHPRLGAAEYRLTYKASSGRGVYTFCMCPGGLVVPAASEEGGLVTNGMSEHARDQKNANSGLLVQVFPEDFPTDHPLAGVEFQKELEHKAFELGGSNYQAPAQLVGDFLDGKASKAMGTVEPSYALGVKPTNLESLFPDYVTQSMREAIVGLDKKMHGFALSDAVMTGVESRSSSPVRINRDEENYQSVSTKGIYPSGEGAGFAGGIVSAGIDGLKCAESMIAEFAKLLMEDLEHHHHHH”, the “soluble on expression in E. coli” value is reported as “soluble”. For “MGLNDNKAGMEGLDKEKINKIIMEATKGSRFYGNELKKEKQVNQRIENMMQQKAQITSQQLRKAQLQVDRFAMELEQSRNLSNTIVHIDMDAFYAAVEMRDNPELKDKPIAVGSMSMLSTSNYHARRFGVRAAMPGFIAKRLCPQLIIVPPNFDKYRAVSKEVKEILADYDPNFMAMSLDEAYLNITKHLEERQNWPEDKRRYFIKMGSSVENDNPGKEVNKLSEHERSISPLLFEESPSDVQPPGDPFQVNFEEQNNPQILQNSVVFGTSAQEVVKEIRFRIEQKTTLTASAGIAPNTMLAKVCSDKNKPNGQYQILPNRQAVMDFIKDLPIRKVSGIGKVTEKMLKALGIITCTELYQQRALLSLLFSETSWHYFLHISLGLGSTHLTRDGERKSMSVERTFSEINKAEEQYSLCQELCSELAQDLQKERLKGRTVTIKLKNVNFEVKTRASTVSSVVSTAEEIFAIAKELLKTEIDADFPHPLRLRLMGVRISSFPNEEDRKHQQ”, the “soluble on expression in E. coli” value was “soluble”. For “DITVYNGQHKEAAQAVADAFTRATGIKVKLNSAKGDQLAGQIKEEGSRSPADVFYSEQIPALATLSAANLLEPLPASTINETRGKGVPVAAKKDWVALSGRSRVVVYDTRKLSEKDLEKSVLNYATPKWKNRIGYVPTSGAFLEQIVAIVKLKGEAAALKWLKGLKEYGKPYAKNSVALQAVENGEVDAALINNYYWHAFAREKGVQNVHTRLNFVRHRDPGALVTYSGAAVLKSSQNKDEAKKFVAFLAGKEGQRALTAVRAEYPLNPHVVSTFNLEPIAKLEAPQVSATTVSEKEHATRLLEQAGMK”, the “soluble on expression in E. coli” value was “soluble”.
